Measurements published in patent US20250066503A1, “CELL INJURY INDUCING THERAPEUTIC DRUG FOR USE IN CANCER THERAPY” (CHUGAI SEIYAKU KABUSHIKI KAISHA, priority 2016, published 2025).

B1: H0610-G1dh/none-Hi-Kn010G3/L0200-k0 (antibody, V domains shown)
VH: QVQLVQSGAEVKKPGASVKVSCKASGYTFTDYEMHWIRQPPGQGLEWIGAIDGKTPDTAYSQKFKGRVTLTADKSTSTAYMELSSLTSEDTAVYYCTRFYSYTYWGQGTLVTVSS
VL: DIVMTQSPLSLPVTPGEPASISCRPSQSPVHSNRNTYLHWYQQKPGQAPRLLIYKVSNRFSGVPDRFSGSGSGTDFTLKISRVEAEDVGVYYCGQGTQVPYTFGQGTKLEIK
notes: one-arm
B2: H0610-G1dh/none-Hi-Kn010G3/L0219-k0 (antibody, V domains shown)
VH: QVQLVQSGAEVKKPGASVKVSCKASGYTFTDYEMHWIRQPPGQGLEWIGAIDGKTPDTAYSQKFKGRVTLTADKSTSTAYMELSSLTSEDTAVYYCTRFYSYTYWGQGTLVTVSS
VL: DIVMTQSPLSLPVTPGEPASISCRSSQSLVHSNRNTYIHWYQQKPGQAPRLLIYKVSNRFRGVPDRFSGSGSGTDFTLKISRVEAEDVGVYYCGQGTQVPYTFGQGTKLEIK
notes: one-arm
B3: H0610-G1dh/none-Hi-Kn010G3/L0234-k0 (antibody, V domains shown)
VH: QVQLVQSGAEVKKPGASVKVSCKASGYTFTDYEMHWIRQPPGQGLEWIGAIDGKTPDTAYSQKFKGRVTLTADKSTSTAYMELSSLTSEDTAVYYCTRFYSYTYWGQGTLVTVSS
VL: DIVMTQSPLSLPVTPGEPASISCRSSQEPVHSNRNTYLHWYQQKPGQAPRLLIYKVSNRFRGVPDRFSGSGSGTDFTLKISRVEAEDVGVYYCGQGTQVPYTFGQGTKLEIK
notes: one-arm
B4: H0610-G1dh/none-Hi-Kn010G3/L0205-k0 (antibody, V domains shown)
VH: QVQLVQSGAEVKKPGASVKVSCKASGYTFTDYEMHWIRQPPGQGLEWIGAIDGKTPDTAYSQKFKGRVTLTADKSTSTAYMELSSLTSEDTAVYYCTRFYSYTYWGQGTLVTVSS
VL: DIVMTQSPLSLPVTPGEPASISCRSSQSPVHSNRNTYLHWYQQKPGQAPRLLIYKVSNRFWGVPDRFSGSGSGTDFTLKISRVEAEDVGVYYCGQGTQVPYTFGQGTKLEIK
notes: one-arm
B5: H0610-G1dh/none-Hi-Kn010G3/L0232-k0 (antibody, V domains shown)
VH: QVQLVQSGAEVKKPGASVKVSCKASGYTFTDYEMHWIRQPPGQGLEWIGAIDGKTPDTAYSQKFKGRVTLTADKSTSTAYMELSSLTSEDTAVYYCTRFYSYTYWGQGTLVTVSS
VL: DIVMTQSPLSLPVTPGEPASISCRSSESLVHSNRNTYLHWYQQKPGQAPRLLIYKVSNRFSGVPDRFSGSGSGTDFTLKISRVEAEDVGVYYCGQGTQVPYTFGQGTKLEIK
notes: one-arm
B6: H0610-G1dh/none-Hi-Kn010G3/L0214-k0 (antibody, V domains shown)
VH: QVQLVQSGAEVKKPGASVKVSCKASGYTFTDYEMHWIRQPPGQGLEWIGAIDGKTPDTAYSQKFKGRVTLTADKSTSTAYMELSSLTSEDTAVYYCTRFYSYTYWGQGTLVTVSS
VL: DIVMTQSPLSLPVTPGEPASISCRSSQPPVHSNRNTYLHWYQQKPGQAPRLLIYKVSNRFRGVPDRFSGSGSGTDFTLKISRVEAEDVGVYYCGQGTQVPYTFGQGTKLEIK
notes: one-arm
B7: H0610-G1dh/none-Hi-Kn010G3/L0224-k0 (antibody, V domains shown)
VH: QVQLVQSGAEVKKPGASVKVSCKASGYTFTDYEMHWIRQPPGQGLEWIGAIDGKTPDTAYSQKFKGRVTLTADKSTSTAYMELSSLTSEDTAVYYCTRFYSYTYWGQGTLVTVSS
VL: DIVMTQSPLSLPVTPGEPASISCRSSQSPVHSNRNTYIHWYQQKPGQAPRLLIYKVSNRFPGVPDRFSGSGSGTDFTLKISRVEAEDVGVYYCYQGTQVPYTFGQGTKLEIK
notes: one-arm
B8: H0610-G1dh/none-Hi-Kn010G3/L0216-k0 (antibody, V domains shown)
VH: QVQLVQSGAEVKKPGASVKVSCKASGYTFTDYEMHWIRQPPGQGLEWIGAIDGKTPDTAYSQKFKGRVTLTADKSTSTAYMELSSLTSEDTAVYYCTRFYSYTYWGQGTLVTVSS
VL: DIVMTQSPLSLPVTPGEPASISCRSSQPLVHSNRNTYLHWYQQKPGQAPRLLIYKVSNRFRGVPDRFSGSGSGTDFTLKISRVEAEDVGVYYCGQGTQVPYTFGQGTKLEIK
notes: one-arm
B9: H0610-G1dh/none-Hi-Kn010G3/L0230-k0 (antibody, V domains shown)
VH: QVQLVQSGAEVKKPGASVKVSCKASGYTFTDYEMHWIRQPPGQGLEWIGAIDGKTPDTAYSQKFKGRVTLTADKSTSTAYMELSSLTSEDTAVYYCTRFYSYTYWGQGTLVTVSS
VL: DIVMTQSPLSLPVTPGEPASISCRSSQSPVHSNRNTYIHWYQQKPGQAPRLLIYKVSNRFSGVPDRFSGSGSGTDFTLKISRVEAEDVGVYYCYQTTQVPYTFGQGTKLEIK
notes: one-arm
B10: H0610-G1dh/none-Hi-Kn010G3/L0202-k0 (antibody, V domains shown)
VH: QVQLVQSGAEVKKPGASVKVSCKASGYTFTDYEMHWIRQPPGQGLEWIGAIDGKTPDTAYSQKFKGRVTLTADKSTSTAYMELSSLTSEDTAVYYCTRFYSYTYWGQGTLVTVSS
VL: DIVMTQSPLSLPVTPGEPASISCRSSQSPVHSNRWTYLHWYQQKPGQAPRLLIYKVSNRFSGVPDRFSGSGSGTDFTLKISRVEAEDVGVYYCGQGTQVPYTFGQGTKLEIK
notes: one-arm
B11: H0610-G1dh/none-Hi-Kn010G3/L0220-k0 (antibody, V domains shown)
VH: QVQLVQSGAEVKKPGASVKVSCKASGYTFTDYEMHWIRQPPGQGLEWIGAIDGKTPDTAYSQKFKGRVTLTADKSTSTAYMELSSLTSEDTAVYYCTRFYSYTYWGQGTLVTVSS
VL: DIVMTQSPLSLPVTPGEPASISCRSSQPLVHSNRNTYLHWYQQKPGQAPRLLIYKVSNRFRGVPDRFSGSGSGTDFTLKISRVEAEDVGVYYCYQGTQVPYTFGQGTKLEIK
notes: one-arm
B12: H0610-G1dh/none-Hi-Kn010G3/L0226-k0 (antibody, V domains shown)
VH: QVQLVQSGAEVKKPGASVKVSCKASGYTFTDYEMHWIRQPPGQGLEWIGAIDGKTPDTAYSQKFKGRVTLTADKSTSTAYMELSSLTSEDTAVYYCTRFYSYTYWGQGTLVTVSS
VL: DIVMTQSPLSLPVTPGEPASISCRSSQSPVHSNRNTYIHWYQQKPGQAPRLLIYKVSNRFSGVPDRFSGSGSGTDFTLKISRVEAEDVGVYYCIQGTQVPYTFGQGTKLEIK
notes: one-arm
B13: H0610-G1dh/none-Hi-Kn010G3/L0227-k0 (antibody, V domains shown)
VH: QVQLVQSGAEVKKPGASVKVSCKASGYTFTDYEMHWIRQPPGQGLEWIGAIDGKTPDTAYSQKFKGRVTLTADKSTSTAYMELSSLTSEDTAVYYCTRFYSYTYWGQGTLVTVSS
VL: DIVMTQSPLSLPVTPGEPASISCRSSQSPVHSNRNTYIHWYQQKPGQAPRLLIYKVSNRFSGVPDRFSGSGSGTDFTLKISRVEAEDVGVYYCLQGTQVPYTFGQGTKLEIK
notes: one-arm
B14: H0610-G1dh/none-Hi-Kn010G3/L0218-k0 (antibody, V domains shown)
VH: QVQLVQSGAEVKKPGASVKVSCKASGYTFTDYEMHWIRQPPGQGLEWIGAIDGKTPDTAYSQKFKGRVTLTADKSTSTAYMELSSLTSEDTAVYYCTRFYSYTYWGQGTLVTVSS
VL: DIVMTQSPLSLPVTPGEPASISCRSSQSLVHSNRNTYLHWYQQKPGQAPRLLIYKVSNRFRGVPDRFSGSGSGTDFTLKISRVEAEDVGVYYCYQGTQVPYTFGQGTKLEIK
notes: one-arm
B15: H0610-G1dh/none-Hi-Kn010G3/L0217-k0 (antibody, V domains shown)
VH: QVQLVQSGAEVKKPGASVKVSCKASGYTFTDYEMHWIRQPPGQGLEWIGAIDGKTPDTAYSQKFKGRVTLTADKSTSTAYMELSSLTSEDTAVYYCTRFYSYTYWGQGTLVTVSS
VL: DIVMTQSPLSLPVTPGEPASISCRPSQSLVHSNRNTYLHWYQQKPGQAPRLLIYKVSNRFRGVPDRFSGSGSGTDFTLKISRVEAEDVGVYYCGQGTQVPYTFGQGTKLEIK
notes: one-arm
B16: H0610-G1dh/none-Hi-Kn010G3/L0228-k0 (antibody, V domains shown)
VH: QVQLVQSGAEVKKPGASVKVSCKASGYTFTDYEMHWIRQPPGQGLEWIGAIDGKTPDTAYSQKFKGRVTLTADKSTSTAYMELSSLTSEDTAVYYCTRFYSYTYWGQGTLVTVSS
VL: DIVMTQSPLSLPVTPGEPASISCRSSQSPVHSNRNTYIHWYQQKPGQAPRLLIYKVSNRFSGVPDRFSGSGSGTDFTLKISRVEAEDVGVYYCVQGTQVPYTFGQGTKLEIK
notes: one-arm
B17: H0610-G1dh/none-Hi-Kn010G3/L0229-k0 (antibody, V domains shown)
VH: QVQLVQSGAEVKKPGASVKVSCKASGYTFTDYEMHWIRQPPGQGLEWIGAIDGKTPDTAYSQKFKGRVTLTADKSTSTAYMELSSLTSEDTAVYYCTRFYSYTYWGQGTLVTVSS
VL: DIVMTQSPLSLPVTPGEPASISCRSSQSPVHSNRNTYIHWYQQKPGQAPRLLIYKVSNRFSGVPDRFSGSGSGTDFTLKISRVEAEDVGVYYCYQSTQVPYTFGQGTKLEIK
notes: one-arm
B18: H0610-G1dh/none-Hi-Kn010G3/L0233-k0 (antibody, V domains shown)
VH: QVQLVQSGAEVKKPGASVKVSCKASGYTFTDYEMHWIRQPPGQGLEWIGAIDGKTPDTAYSQKFKGRVTLTADKSTSTAYMELSSLTSEDTAVYYCTRFYSYTYWGQGTLVTVSS
VL: DIVMTQSPLSLPVTPGEPASISCRSSQELVHSNRNTYLHWYQQKPGQAPRLLIYKVSNRFSGVPDRFSGSGSGTDFTLKISRVEAEDVGVYYCGQGTQVPYTFGQGTKLEIK
notes: one-arm
B19: H0610-G1dh/none-Hi-Kn010G3/L0223-k0 (antibody, V domains shown)
VH: QVQLVQSGAEVKKPGASVKVSCKASGYTFTDYEMHWIRQPPGQGLEWIGAIDGKTPDTAYSQKFKGRVTLTADKSTSTAYMELSSLTSEDTAVYYCTRFYSYTYWGQGTLVTVSS
VL: DIVMTQSPLSLPVTPGEPASISCRSSQSPVHSNRNTYIHWYQQKPGQAPRLLIYKVSNRLSGVPDRFSGSGSGTDFTLKISRVEAEDVGVYYCYQGTQVPYTFGQGTKLEIK
notes: one-arm
B20: H0610-G1dh/none-Hi-Kn010G3/L0215-k0 (antibody, V domains shown)
VH: QVQLVQSGAEVKKPGASVKVSCKASGYTFTDYEMHWIRQPPGQGLEWIGAIDGKTPDTAYSQKFKGRVTLTADKSTSTAYMELSSLTSEDTAVYYCTRFYSYTYWGQGTLVTVSS
VL: DIVMTQSPLSLPVTPGEPASISCRSSQPPVHSNRNTYIHWYQQKPGQAPRLLIYKVSNRFSGVPDRFSGSGSGTDFTLKISRVEAEDVGVYYCGQGTQVPYTFGQGTKLEIK
notes: one-arm
B21: H0610-G1dh/none-Hi-Kn010G3/L0231-k0 (antibody, V domains shown)
VH: QVQLVQSGAEVKKPGASVKVSCKASGYTFTDYEMHWIRQPPGQGLEWIGAIDGKTPDTAYSQKFKGRVTLTADKSTSTAYMELSSLTSEDTAVYYCTRFYSYTYWGQGTLVTVSS
VL: DIVMTQSPLSLPVTPGEPASISCRSSQSPVHSNRNTYIHWYQQKPGQAPRLLIYKVSNRFSGVPDRFSGSGSGTDFTLKISRVEAEDVGVYYCYQGTQWPYTFGQGTKLEIK
notes: one-arm
B22: H0610-G1dh/none-Hi-Kn010G3/L0213-k0 (antibody, V domains shown)
VH: QVQLVQSGAEVKKPGASVKVSCKASGYTFTDYEMHWIRQPPGQGLEWIGAIDGKTPDTAYSQKFKGRVTLTADKSTSTAYMELSSLTSEDTAVYYCTRFYSYTYWGQGTLVTVSS
VL: DIVMTQSPLSLPVTPGEPASISCRSSQSPVHSNRNTYIHWYQQKPGQAPRLLIYKVSNRFRGVPDRFSGSGSGTDFTLKISRVEAEDVGVYYCGQGTQVPYTFGQGTKLEIK
notes: one-arm

What follows are binders tested against T1, human GPC3 (human, UniProt P51654 25-563) (assay: SPR).
T1 construct: range 25-563; soluble analyte; also called soluble human GPC3; glypican 3
T1 sequence (P51654 25-563 limits assumed): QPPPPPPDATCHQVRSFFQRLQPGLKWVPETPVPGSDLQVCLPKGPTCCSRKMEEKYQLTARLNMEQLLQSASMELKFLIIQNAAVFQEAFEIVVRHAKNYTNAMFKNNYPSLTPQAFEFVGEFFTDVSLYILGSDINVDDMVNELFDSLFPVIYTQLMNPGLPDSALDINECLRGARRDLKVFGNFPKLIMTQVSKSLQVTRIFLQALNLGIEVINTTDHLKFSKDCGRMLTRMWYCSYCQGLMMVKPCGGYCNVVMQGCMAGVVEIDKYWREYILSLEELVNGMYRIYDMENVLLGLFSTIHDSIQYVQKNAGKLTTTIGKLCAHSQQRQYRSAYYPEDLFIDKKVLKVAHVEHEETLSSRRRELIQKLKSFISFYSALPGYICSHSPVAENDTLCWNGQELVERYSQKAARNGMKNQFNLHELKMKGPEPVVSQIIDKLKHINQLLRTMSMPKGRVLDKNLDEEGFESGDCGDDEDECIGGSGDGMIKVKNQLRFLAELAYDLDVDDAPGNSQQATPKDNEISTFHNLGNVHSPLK
For B1, the Kd was 1.04 nM. Binder B2 has a Kd of 2.28 nM. For B3, the Kd was 0.778 nM. For B4, the Kd was 1.01 nM. Work on B5 yielded a Kd of 5.38 nM. B6 gave a Kd of 0.657 nM. B7 was tested, and the Kd was 0.243 nM. Work on B8 yielded a Kd of 1.86 nM. B9 gave a Kd of 4 nM. B10 was tested, and the Kd was 1.22 nM. With B11 the Kd was 1.36 nM. B12 was tested, and the Kd was 0.093 nM. In the case of B13, the Kd is reported as 0.408 nM. Binder B14 has a Kd of 1.99 nM. Work on B15 yielded a Kd of 1.79 nM. B16 gave a Kd of 0.202 nM. With B17 the Kd was 1.2 nM. In the case of B18, the Kd is reported as 3.55 nM. Work on B19 yielded a Kd of 0.475 nM. Work on B20 yielded a Kd of 1.64 nM. B21 showed a Kd of 0.589 nM. In the case of B22, the Kd is reported as 1.25 nM.
